The results in this text go back to article PMC10123104.

Substrate in the data set: Nc1nc2c(ncn2[C@@H]2O[C@H](COP(=O)(O)OP(=O)(O)OP(=O)(O)O)[C@@H](O)[C@H]2O)c(=O)[nH]1
As to the kind of experiment: purified protein, by the assay type. The data set is classed as biochemical. As to the method:
Nucleotides were detected at 254 nm. […] All measurements were performed in triplicate.

B1: ObgE (Escherichia coli K-12) (protein)
chain: MKFVDEASILVVAGDGGNGCVSFRREKYIPKGGPDGGDGGDGGDVWMEADENLNTLIDYRFEKSFRAERGQNGASRDCTGKRGKDVTIKVPVGTRVIDQGTGETMGDMTKHGQRLLVAKGGWHGLGNTRFKSSVNRTPRQKTNGTPGDKRELLLELMLLADVGMLGMPNAGKSTFIRAVSAAKPKVADYPFTTLVPSLGVVRMDNEKSFVVADIPGLIEGAAEGAGLGIRFLKHLERCRVLLHLIDIDPIDGTDPVENARIIISELEKYSQDLATKPRWLVFNKIDLLDKVEAEEKAKAIAEALGWEDKYYLISAASGLGVKDLCWDVMTFIIENPVVQAEEAKQPEKVEFMWDDYHRQQLEEIAEEDDEDWDDDWDEDDEEGVEFIYKR
notes: full length, N-terminally His6-tagged (pET28a), nucleotide-free after alkaline phosphatase treatment
With B1, the Michaelis-Menten constant (Km) – broadly, the substrate concentration at which the rate is half of its maximum – was 4 µM.
